Results on 2 substances are retold here after PMC8924211 (Nature Communications, 2022).

Where a chain is given by its changes, count along the chain named. Where “and” joins values, the source holds several entries; their conditions need not be identical. Identical values can stand only once.

For experiment [1], the target named is SNAP-GAL2R F264^ECL3A (human) (UniProt O43603).
A further experiment deals with T1, SNAP-GAL2R I256^6.55A (human, UniProt O43603 1-387, I256^6.55A, Lumi4-Tb on the SNAP tag).
T1 construct: also called I256A; source: HEK293, transfected, on cells; not shown: SNAP tag, N-terminal, kept
T1 sequence (looked up): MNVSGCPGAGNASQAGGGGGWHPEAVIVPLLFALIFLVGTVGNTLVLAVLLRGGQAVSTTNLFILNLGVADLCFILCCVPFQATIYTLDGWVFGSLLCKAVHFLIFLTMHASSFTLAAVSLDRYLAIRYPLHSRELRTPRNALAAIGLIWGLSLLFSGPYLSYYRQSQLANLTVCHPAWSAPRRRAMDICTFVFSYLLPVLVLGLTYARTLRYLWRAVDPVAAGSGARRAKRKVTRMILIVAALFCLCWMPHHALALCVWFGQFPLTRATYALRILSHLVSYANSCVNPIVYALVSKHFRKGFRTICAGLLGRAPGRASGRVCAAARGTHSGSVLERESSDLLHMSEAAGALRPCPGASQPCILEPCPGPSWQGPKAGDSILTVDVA

In experiment [2] the target is T2, SNAP-GAL2R A170^ECL2S (human, UniProt O43603 1-387, A170^ECL2S, Lumi4-Tb on the SNAP tag).
T2 construct: also called A170S; source: HEK293, transfected, on cells; not shown: SNAP tag, N-terminal, kept
T2 sequence (looked up): T1 sequence (looked up) with A170S, A256I

Experiment [3] has as its target T3, SNAP-GAL2R V259^6.58A (human, UniProt O43603 1-387, V259^6.58A, Lumi4-Tb on the SNAP tag).
T3 construct: also called V259A; source: HEK293, transfected, on cells; not shown: SNAP tag, N-terminal, kept
T3 sequence (looked up): T1 sequence (looked up) with A256I, V259A

Experiment [4] addresses T4, SNAP-GAL2R L172^ECL2A (human, UniProt O43603 1-387, L172^ECL2A, Lumi4-Tb on the SNAP tag).
T4 construct: also called L172A; source: HEK293, transfected, on cells; not shown: SNAP tag, N-terminal, kept
T4 sequence (looked up): T1 sequence (looked up) with L172A, A256I

Experiment [5] concerns the target SNAP-GAL2R Y271^7.32A (human) (UniProt O43603).
In experiment [6] the target is SNAP-GAL2R L266^ECL3A (human) (UniProt O43603).
In experiment [7] the target is T5, SNAP-GAL2R L169^ECL2A (human, UniProt O43603 1-387, L169^ECL2A, Lumi4-Tb on the SNAP tag).
T5 construct: also called L169A; source: HEK293, transfected, on cells; not shown: SNAP tag, N-terminal, kept
T5 sequence (looked up): T1 sequence (looked up) with L169A, A256I

Experiment [8] concerns the target SNAP-GAL2R Y86^2.65A (human) (UniProt O43603).
Experiment [9] concerns the target SNAP-GAL2R F264^ECL3A (human) (UniProt O43603). The source holds these as a separate data set.
Experiment [10] has as its target SNAP-GAL2R I85^2.64A (human) (UniProt O43603).
A further experiment has as its target T6, SNAP-GAL2R L255^6.54A (human, UniProt O43603 1-387, L255^6.54A, Lumi4-Tb on the SNAP tag).
T6 construct: also called L255A; source: HEK293, transfected, on cells; not shown: SNAP tag, N-terminal, kept
T6 sequence (looked up): T1 sequence (looked up) with L255A, A256I

A further experiment has as its target T7, SNAP-GAL2R R184^5.35A (human, UniProt O43603 1-387, R184^5.35A, Lumi4-Tb on the SNAP tag).
T7 construct: also called R184A; source: HEK293, transfected, on cells; not shown: SNAP tag, N-terminal, kept
T7 sequence (looked up): T1 sequence (looked up) with R184A, A256I

The target of a further experiment is T8, SNAP-GAL2R T267^7.28A (human, UniProt O43603 1-387, T267^7.28A, Lumi4-Tb on the SNAP tag).
T8 construct: also called T267A; source: HEK293, transfected, on cells; not shown: SNAP tag, N-terminal, kept
T8 sequence (looked up): T1 sequence (looked up) with A256I, T267A

Experiment [11] has as its target T2, SNAP-GAL2R A170^ECL2S. The source holds these as a separate data set.
Experiment [12] concerns the target T3, SNAP-GAL2R V259^6.58A. The source holds these as a separate data set.
Experiment [13] addresses T4, SNAP-GAL2R L172^ECL2A. The source holds these as a separate data set.
Experiment [14] concerns the target SNAP-GAL2R Y271^7.32A (human) (UniProt O43603). This is another data set of the same source.
The target in experiment [15] is SNAP-GAL2R L266^ECL3A (human) (UniProt O43603). The source holds these as a separate data set.
Experiment [16] deals with T5, SNAP-GAL2R L169^ECL2A. This is another data set of the same source.
Experiment [17] has as its target SNAP-GAL2R Q82^2.61A (human) (UniProt O43603).

With “spexin (mature, 14 amino acids) (peptide)”, the calcium assay EC50 (spexin) in experiment [1] is > 100000 nM; with SNAP-GAL2R I256^6.55A it was 674 nM and 438 nM and 924 nM; with SNAP-GAL2R A170^ECL2S [2] it was 95.4 nM and 151 nM (2×); with SNAP-GAL2R V259^6.58A [3] it was 1330 nM and 6620 nM and 6150 nM; with SNAP-GAL2R L172^ECL2A [4] it was 3120 nM and 10800 nM and 12100 nM; in [5], 5960 nM and 1580 nM and 752 nM. Moreover, the calcium assay EC50 (spexin) is 25100 nM and 15300 nM and 12000 nM in experiment [6]; 7170 nM and 5140 nM and 1830 nM with SNAP-GAL2R L169^ECL2A [7].
For “galanin (full length, unlabeled) (peptide)”, the calcium assay EC50 (galanin; HEK293/Gα16 cells) is 3230 nM and 2210 nM in experiment [8]; 1760 nM and 2390 nM and 3590 nM in experiment [9]; 5200 nM and 4440 nM and 1380 nM in experiment [10]; 153 nM and 293 nM with SNAP-GAL2R L255^6.54A; 138 nM and 115 nM and 58 nM with SNAP-GAL2R R184^5.35A; 3150 nM and 2330 nM and 1260 nM with SNAP-GAL2R T267^7.28A. The calcium assay EC50 (galanin; HEK293/Gα16 cells) with SNAP-GAL2R A170^ECL2S [11] was 10 nM and 8.08 nM and 12.4 nM; in the experiment with SNAP-GAL2R V259^6.58A [12], 290 nM and 275 nM and 205 nM; with SNAP-GAL2R L172^ECL2A [13], 59 nM and 71.7 nM and 55.4 nM; in [14] it was 515 nM and 678 nM and 969 nM; in [15], 27900 nM and 7140 nM; in the experiment with SNAP-GAL2R L169^ECL2A [16] it was 93.5 nM and 82.5 nM and 22.5 nM. In addition, in [17], the calcium assay EC50 (galanin; HEK293/Gα16 cells) is 4680 nM and 4340 nM and 2980 nM.
